Target: His-tagged human GFRAL (recombinant soluble GFRAL protein, R&D catalogue no. 9647-GR-050) (human) (UniProt Q6UXV0)
Test: SPR sandwich assay: row antibody captured via anti-Fc, GFRAL antigen added, then mAbQ injected as analyte (competitor: mAb Q)

His-tagged human GFRAL (recombinant soluble GFRAL protein, R&D catalogue no. 9647-GR-050) (human), sequence (Q6UXV0 19-351): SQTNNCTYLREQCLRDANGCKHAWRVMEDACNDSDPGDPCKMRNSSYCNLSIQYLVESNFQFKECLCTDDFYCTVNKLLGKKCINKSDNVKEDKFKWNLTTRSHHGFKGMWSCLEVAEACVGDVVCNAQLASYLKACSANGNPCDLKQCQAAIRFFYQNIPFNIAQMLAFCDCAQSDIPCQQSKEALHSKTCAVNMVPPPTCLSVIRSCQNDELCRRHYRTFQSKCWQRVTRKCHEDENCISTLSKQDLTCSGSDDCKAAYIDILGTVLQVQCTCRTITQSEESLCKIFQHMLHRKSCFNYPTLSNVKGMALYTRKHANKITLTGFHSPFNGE

resonance units after mAbQ injection (resonance units): 4
Substance: IgG4PE (negative control) (antibody)
